According to the supplement of paper PMC10724198:
± gives the standard deviation of the averaged measurements.

Legend:
Saccharomyces cerevisiae [1] = experiment: protein stability index of tFT-peptide fusion (C-terminal peptide) (PSI (0-1 scale)); higher = more stable (slower turnover)
Description: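 MPS profiling in S. cerevisiae of the tFT-X12 degron library: putative degron peptides plus stable controls, 12 aa, fused to the C-terminus of a sfGFP-mCherry timer. Cells are FACS-sorted into 8 mCherry/sfGFP bins and deep-sequenced. PSI runs from 0 (unstable) to 1 (stable). Backgrounds are wild type, das1Δ and doa10Δ at 30 °C, and wild type, das1Δ, cdc34-1 and cdc53-1 at 37 °C; 2-3 technical replicates each.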

Saccharomyces cerevisiae [2] = experiment: as above; conditions: genetic background: wild type; temperature: 30 C
[3] = genetic background: cdc34-1, temperature: 37 C
[4] = genetic background: cdc53-1, temperature: 37 C
[5] = genetic background: das1 deletion, temperature: 30 C
[6] = genetic background: das1 deletion, temperature: 37 C
[7] = genetic background: doa10 deletion, temperature: 30 C
[8] = genetic background: wild type, temperature: 30 C
[9] = genetic background: wild type, temperature: 37 C
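Note: PSI is a weighted mean of sequencing reads over stability bins, variants kept only with over 10 reads, mCherry proximal and sfGFP distal, peptide attached via GGGS linker.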

Sequence: FVSFFRWLLVSI
- protein stability index (Saccharomyces cerevisiae [1]; [3]): 0.267 ± 0.016
- protein stability index (Saccharomyces cerevisiae [1]; [4]): 0.201 ± 0.04
- protein stability index (Saccharomyces cerevisiae [1]; [5]): 0.358 ± 0.039
- protein stability index (Saccharomyces cerevisiae [1]; [6]): 0.4432 ± 0.0011
- protein stability index (Saccharomyces cerevisiae [1]; [7]): 0.211 ± 0.017
- protein stability index (Saccharomyces cerevisiae [1]; [8]): 0.163 ± 0.015
- protein stability index (Saccharomyces cerevisiae [1]; [9]): 0.218 ± 0.0089
- protein stability index (Saccharomyces cerevisiae [2]): 0.152 ± 0.028

Sequence: PLFLLTFAITLV
- protein stability index (Saccharomyces cerevisiae [1]; [3]): 0.0736 ± 0.0086
- protein stability index (Saccharomyces cerevisiae [1]; [4]): 0.194 ± 0.06
- protein stability index (Saccharomyces cerevisiae [1]; [5]): 0.166 ± 0.024
- protein stability index (Saccharomyces cerevisiae [1]; [6]): 0.277 ± 0.018
- protein stability index (Saccharomyces cerevisiae [1]; [7]): 0.152 ± 0.0066
- protein stability index (Saccharomyces cerevisiae [1]; [8]): 0.146 ± 0.028
- protein stability index (Saccharomyces cerevisiae [1]; [9]): 0.2289 ± 0.00087
- protein stability index (Saccharomyces cerevisiae [2]): 0.272 ± 0.021

Sequence: ATSGATILVLIA
- protein stability index (Saccharomyces cerevisiae [1]; [3]): 0.569 ± 0.014
- protein stability index (Saccharomyces cerevisiae [1]; [4]): 0.65 ± 0.0048
- protein stability index (Saccharomyces cerevisiae [1]; [5]): 0.488 ± 0.024
- protein stability index (Saccharomyces cerevisiae [1]; [6]): 0.6473 ± 0.0042
- protein stability index (Saccharomyces cerevisiae [1]; [7]): 0.188 ± 0.0099
- protein stability index (Saccharomyces cerevisiae [1]; [8]): 0.218 ± 0.021
- protein stability index (Saccharomyces cerevisiae [1]; [9]): 0.342 ± 0.0064
- protein stability index (Saccharomyces cerevisiae [2]): 0.307 ± 0.0047

Sequence: LGCRFCFVGVVG
- protein stability index (Saccharomyces cerevisiae [1]; [3]): 0.589 ± 0.011
- protein stability index (Saccharomyces cerevisiae [1]; [4]): 0.632 ± 0.052
- protein stability index (Saccharomyces cerevisiae [1]; [5]): 0.429 ± 0.021
- protein stability index (Saccharomyces cerevisiae [1]; [6]): 0.634 ± 0.026
- protein stability index (Saccharomyces cerevisiae [1]; [7]): 0.395 ± 0.01
- protein stability index (Saccharomyces cerevisiae [1]; [8]): 0.439 ± 0.029
- protein stability index (Saccharomyces cerevisiae [1]; [9]): 0.574 ± 0.022
- protein stability index (Saccharomyces cerevisiae [2]): 0.494 ± 0.033

Sequence: SWVSVLSELLAC
- protein stability index (Saccharomyces cerevisiae [1]; [3]): 0.224 ± 0.014
- protein stability index (Saccharomyces cerevisiae [1]; [4]): 0.249 ± 0.017
- protein stability index (Saccharomyces cerevisiae [1]; [5]): 0.251 ± 0.045
- protein stability index (Saccharomyces cerevisiae [1]; [6]): 0.362 ± 0.0082
- protein stability index (Saccharomyces cerevisiae [1]; [7]): 0.204 ± 0.0092
- protein stability index (Saccharomyces cerevisiae [1]; [8]): 0.238 ± 0.025
- protein stability index (Saccharomyces cerevisiae [1]; [9]): 0.2873 ± 0.0022
- protein stability index (Saccharomyces cerevisiae [2]): 0.336 ± 0.022

Sequence: VSFEFSVLWTVF
- protein stability index (Saccharomyces cerevisiae [1]; [3]): 0.548 ± 0.073
- protein stability index (Saccharomyces cerevisiae [1]; [4]): 0.592 ± 0.028
- protein stability index (Saccharomyces cerevisiae [1]; [5]): 0.515 ± 0.022
- protein stability index (Saccharomyces cerevisiae [1]; [6]): 0.574 ± 0.029
- protein stability index (Saccharomyces cerevisiae [1]; [7]): 0.384 ± 0.016
- protein stability index (Saccharomyces cerevisiae [1]; [8]): 0.383 ± 0.017
- protein stability index (Saccharomyces cerevisiae [1]; [9]): 0.469 ± 0.005
- protein stability index (Saccharomyces cerevisiae [2]): 0.46 ± 0.018

Sequence: SRLVSRLGLYLS
- protein stability index (Saccharomyces cerevisiae [1]; [3]): 0.656 ± 0.054
- protein stability index (Saccharomyces cerevisiae [1]; [4]): 0.71 ± 0.0097
- protein stability index (Saccharomyces cerevisiae [1]; [5]): 0.626 ± 0.013
- protein stability index (Saccharomyces cerevisiae [1]; [6]): 0.728 ± 0.035
- protein stability index (Saccharomyces cerevisiae [1]; [7]): 0.214 ± 0.0099
- protein stability index (Saccharomyces cerevisiae [1]; [8]): 0.22 ± 0.022
- protein stability index (Saccharomyces cerevisiae [1]; [9]): 0.475 ± 0.03
- protein stability index (Saccharomyces cerevisiae [2]): 0.361 ± 0.02

Sequence: GCSVSLCCVFVV
- protein stability index (Saccharomyces cerevisiae [1]; [3]): 0.489 ± 0.016
- protein stability index (Saccharomyces cerevisiae [1]; [4]): 0.503 ± 0.021
- protein stability index (Saccharomyces cerevisiae [1]; [5]): 0.36 ± 0.028
- protein stability index (Saccharomyces cerevisiae [1]; [6]): 0.525 ± 0.01
- protein stability index (Saccharomyces cerevisiae [1]; [7]): 0.2589 ± 0.0012
- protein stability index (Saccharomyces cerevisiae [1]; [8]): 0.282 ± 0.025
- protein stability index (Saccharomyces cerevisiae [1]; [9]): 0.433 ± 0.0093
- protein stability index (Saccharomyces cerevisiae [2]): 0.372 ± 0.022

Sequence: FILLIFLSLLSP
- protein stability index (Saccharomyces cerevisiae [1]; [3]): 0.352 ± 0.0047
- protein stability index (Saccharomyces cerevisiae [1]; [4]): 0.416 ± 0.024
- protein stability index (Saccharomyces cerevisiae [1]; [5]): 0.294 ± 0.029
- protein stability index (Saccharomyces cerevisiae [1]; [6]): 0.454 ± 0.01
- protein stability index (Saccharomyces cerevisiae [1]; [7]): 0.26 ± 0.0071
- protein stability index (Saccharomyces cerevisiae [1]; [8]): 0.281 ± 0.043
- protein stability index (Saccharomyces cerevisiae [1]; [9]): 0.427 ± 0.016
- protein stability index (Saccharomyces cerevisiae [2]): 0.3211 ± 0.0026

Sequence: LSTFFIFLRILR
- protein stability index (Saccharomyces cerevisiae [1]; [3]): 0.289 ± 0.028
- protein stability index (Saccharomyces cerevisiae [1]; [4]): 0.218 ± 0.0087
- protein stability index (Saccharomyces cerevisiae [1]; [5]): 0.324 ± 0.04
- protein stability index (Saccharomyces cerevisiae [1]; [6]): 0.4436 ± 0.0022
- protein stability index (Saccharomyces cerevisiae [1]; [7]): 0.517 ± 0.021
- protein stability index (Saccharomyces cerevisiae [1]; [8]): 0.342 ± 0.028
- protein stability index (Saccharomyces cerevisiae [1]; [9]): 0.436 ± 0.05
- protein stability index (Saccharomyces cerevisiae [2]): 0.367 ± 0.028

Sequence: RRIKNRRLKQVT
- protein stability index (Saccharomyces cerevisiae [1]; [3]): 0.63 ± 0.076
- protein stability index (Saccharomyces cerevisiae [1]; [4]): 0.694 ± 0.011
- protein stability index (Saccharomyces cerevisiae [1]; [5]): 0.666 ± 0.064
- protein stability index (Saccharomyces cerevisiae [1]; [6]): 0.722 ± 0.0067
- protein stability index (Saccharomyces cerevisiae [1]; [7]): 0.214 ± 0.0054
- protein stability index (Saccharomyces cerevisiae [1]; [8]): 0.283 ± 0.026
- protein stability index (Saccharomyces cerevisiae [1]; [9]): 0.472 ± 0.036
- protein stability index (Saccharomyces cerevisiae [2]): 0.43 ± 0.033

Sequence: FPPRLIPLLARS
- protein stability index (Saccharomyces cerevisiae [1]; [3]): 0.442 ± 0.028
- protein stability index (Saccharomyces cerevisiae [1]; [4]): 0.4556 ± 0.00087
- protein stability index (Saccharomyces cerevisiae [1]; [5]): 0.31 ± 0.044
- protein stability index (Saccharomyces cerevisiae [1]; [6]): 0.511 ± 0.0063
- protein stability index (Saccharomyces cerevisiae [1]; [7]): 0.2401 ± 0.0016
- protein stability index (Saccharomyces cerevisiae [1]; [8]): 0.291 ± 0.025
- protein stability index (Saccharomyces cerevisiae [1]; [9]): 0.4713 ± 0.0013
- protein stability index (Saccharomyces cerevisiae [2]): 0.372 ± 0.02

Sequence: GLDLLTKFSKEC
- protein stability index (Saccharomyces cerevisiae [1]; [3]): 0.678 ± 0.049
- protein stability index (Saccharomyces cerevisiae [1]; [4]): 0.734 ± 0.036
- protein stability index (Saccharomyces cerevisiae [1]; [5]): 0.617 ± 0.02
- protein stability index (Saccharomyces cerevisiae [1]; [6]): 0.741 ± 0.015
- protein stability index (Saccharomyces cerevisiae [1]; [7]): 0.291 ± 0.027
- protein stability index (Saccharomyces cerevisiae [1]; [8]): 0.33 ± 0.015
- protein stability index (Saccharomyces cerevisiae [1]; [9]): 0.585 ± 0.011
- protein stability index (Saccharomyces cerevisiae [2]): 0.465 ± 0.034

Sequence: WYMYVRMASFLV
- protein stability index (Saccharomyces cerevisiae [1]; [3]): 0.534 ± 0.058
- protein stability index (Saccharomyces cerevisiae [1]; [4]): 0.634 ± 0.05
- protein stability index (Saccharomyces cerevisiae [1]; [5]): 0.489 ± 0.026
- protein stability index (Saccharomyces cerevisiae [1]; [6]): 0.603 ± 0.018
- protein stability index (Saccharomyces cerevisiae [1]; [7]): 0.302 ± 0.0084
- protein stability index (Saccharomyces cerevisiae [1]; [8]): 0.287 ± 0.027
- protein stability index (Saccharomyces cerevisiae [1]; [9]): 0.44 ± 0.0072
- protein stability index (Saccharomyces cerevisiae [2]): 0.375 ± 0.026

Sequence: RWRYHAYVITIL
- protein stability index (Saccharomyces cerevisiae [1]; [3]): 0.334 ± 0.02
- protein stability index (Saccharomyces cerevisiae [1]; [4]): 0.4158 ± 0.0037
- protein stability index (Saccharomyces cerevisiae [1]; [5]): 0.392 ± 0.02
- protein stability index (Saccharomyces cerevisiae [1]; [6]): 0.506 ± 0.0054
- protein stability index (Saccharomyces cerevisiae [1]; [7]): 0.118 ± 0.0098
- protein stability index (Saccharomyces cerevisiae [1]; [8]): 0.0812 ± 0.025
- protein stability index (Saccharomyces cerevisiae [1]; [9]): 0.0987 ± 0.0088
- protein stability index (Saccharomyces cerevisiae [2]): 0.138 ± 0.045

Sequence: IVVWCGIRYSIR
- protein stability index (Saccharomyces cerevisiae [1]; [3]): 0.328 ± 0.005
- protein stability index (Saccharomyces cerevisiae [1]; [4]): 0.415 ± 0.055
- protein stability index (Saccharomyces cerevisiae [1]; [5]): 0.263 ± 0.035
- protein stability index (Saccharomyces cerevisiae [1]; [6]): 0.484 ± 0.0071
- protein stability index (Saccharomyces cerevisiae [1]; [7]): 0.233 ± 0.013
- protein stability index (Saccharomyces cerevisiae [1]; [8]): 0.262 ± 0.029
- protein stability index (Saccharomyces cerevisiae [1]; [9]): 0.459 ± 0.0096
- protein stability index (Saccharomyces cerevisiae [2]): 0.366 ± 0.032

Sequence: GGGGLRVVVWLV
- protein stability index (Saccharomyces cerevisiae [1]; [3]): 0.534 ± 0.032
- protein stability index (Saccharomyces cerevisiae [1]; [4]): 0.647 ± 0.022
- protein stability index (Saccharomyces cerevisiae [1]; [5]): 0.501 ± 0.021
- protein stability index (Saccharomyces cerevisiae [1]; [6]): 0.6625 ± 0.0052
- protein stability index (Saccharomyces cerevisiae [1]; [7]): 0.111 ± 0.011
- protein stability index (Saccharomyces cerevisiae [1]; [8]): 0.124 ± 0.018
- protein stability index (Saccharomyces cerevisiae [1]; [9]): 0.15 ± 0.01
- protein stability index (Saccharomyces cerevisiae [2]): 0.211 ± 0.049

Sequence: CSLFYVFYRRLL
- protein stability index (Saccharomyces cerevisiae [1]; [3]): 0.595 ± 0.026
- protein stability index (Saccharomyces cerevisiae [1]; [4]): 0.665 ± 0.012
- protein stability index (Saccharomyces cerevisiae [1]; [5]): 0.556 ± 0.0087
- protein stability index (Saccharomyces cerevisiae [1]; [6]): 0.649 ± 0.01
- protein stability index (Saccharomyces cerevisiae [1]; [7]): 0.285 ± 0.011
- protein stability index (Saccharomyces cerevisiae [1]; [8]): 0.342 ± 0.051
- protein stability index (Saccharomyces cerevisiae [1]; [9]): 0.5212 ± 0.0043
- protein stability index (Saccharomyces cerevisiae [2]): 0.38 ± 0.0078

Sequence: VVCPCIIYVPGV
- protein stability index (Saccharomyces cerevisiae [1]; [3]): 0.619 ± 0.039
- protein stability index (Saccharomyces cerevisiae [1]; [4]): 0.643 ± 0.011
- protein stability index (Saccharomyces cerevisiae [1]; [5]): 0.455 ± 0.014
- protein stability index (Saccharomyces cerevisiae [1]; [6]): 0.637 ± 0.011
- protein stability index (Saccharomyces cerevisiae [1]; [7]): 0.455 ± 0.016
- protein stability index (Saccharomyces cerevisiae [1]; [8]): 0.461 ± 0.0066
- protein stability index (Saccharomyces cerevisiae [1]; [9]): 0.613 ± 0.021
- protein stability index (Saccharomyces cerevisiae [2]): 0.466 ± 0.022
